The values below come from publication PMC11722253.

The target in one series is T1, SPbeta integrase (SprA) (Bacillus subtilis phage SPbeta, UniProt O32006 1-545).
T1 sequence: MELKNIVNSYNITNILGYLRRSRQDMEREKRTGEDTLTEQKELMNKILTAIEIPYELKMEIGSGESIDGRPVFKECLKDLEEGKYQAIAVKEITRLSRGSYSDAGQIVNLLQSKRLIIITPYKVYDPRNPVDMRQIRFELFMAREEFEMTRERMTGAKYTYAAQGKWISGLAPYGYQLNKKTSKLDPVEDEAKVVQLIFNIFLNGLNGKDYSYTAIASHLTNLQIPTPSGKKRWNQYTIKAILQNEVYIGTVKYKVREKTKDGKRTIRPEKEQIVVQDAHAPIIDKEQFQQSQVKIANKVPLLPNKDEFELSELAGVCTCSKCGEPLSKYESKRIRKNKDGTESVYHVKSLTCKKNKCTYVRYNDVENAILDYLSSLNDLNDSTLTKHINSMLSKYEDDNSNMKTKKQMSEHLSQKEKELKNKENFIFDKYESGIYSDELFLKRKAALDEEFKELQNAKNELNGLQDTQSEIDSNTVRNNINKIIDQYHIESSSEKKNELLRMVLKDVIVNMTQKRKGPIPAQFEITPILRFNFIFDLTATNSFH
Put plainly: SEC. Background: Size exclusion chromatography separates by hydrodynamic size, large species first.

For series [1], the target named is T2, SPbeta integrase-RDF fusion (SprA-SprB) (Bacillus subtilis phage SPbeta, UniProt O32006 1-545+=TSGSGGSGGSGGSGRSGT+O34850:2-58, internal_change).
T2 sequence: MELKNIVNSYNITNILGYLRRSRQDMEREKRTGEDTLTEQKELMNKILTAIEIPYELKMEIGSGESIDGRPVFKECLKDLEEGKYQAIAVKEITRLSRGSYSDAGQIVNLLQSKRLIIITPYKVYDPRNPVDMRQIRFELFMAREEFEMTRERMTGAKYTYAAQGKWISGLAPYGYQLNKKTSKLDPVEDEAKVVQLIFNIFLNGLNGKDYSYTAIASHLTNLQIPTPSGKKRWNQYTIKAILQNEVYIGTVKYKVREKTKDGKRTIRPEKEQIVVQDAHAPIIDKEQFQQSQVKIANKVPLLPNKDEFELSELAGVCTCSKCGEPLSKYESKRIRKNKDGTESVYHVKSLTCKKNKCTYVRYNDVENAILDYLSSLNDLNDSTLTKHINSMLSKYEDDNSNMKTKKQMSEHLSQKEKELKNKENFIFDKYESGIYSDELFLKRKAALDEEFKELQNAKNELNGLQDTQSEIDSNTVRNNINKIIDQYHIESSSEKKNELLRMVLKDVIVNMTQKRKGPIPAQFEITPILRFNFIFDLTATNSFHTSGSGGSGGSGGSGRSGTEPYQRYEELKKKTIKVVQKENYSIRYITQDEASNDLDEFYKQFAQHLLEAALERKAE
Put plainly: SEC.

B1: attPmm (dsDNA)
DNA 1: AAAAAAAAGGTAGTAAGTATCTTAAAAAACAGATTTAGCTGTATATTAAGATACTTACTAC
DNA 2: GTAGTAAGTATCTTAATATACAGCTTTATCTGTTTTTTAAGATACTTACTACTTTTTTTTT
With B1, the binding result (in the series with SPbeta integrase (SprA); in series [1]) was “binds” in each case.
